The data set “SEC” concerns the molecule itself. Briefly: SEC.
Data set [1] has as its target T1, His-MBP-FBXL17^310-701/Skp1 complex ( | human, UniProt Q9UF56;P63208). As to the kind of experiment: FRET or BRET.
The data set “FRET or BRET” concerns the molecule itself. As to the kind of experiment: FRET or BRET.
Data set [2] deals with FBXL17^310-701 (tags removed, in the structures) (UniProt Q9UF56 310-701). As to the kind of experiment: crystal structure.
In data set [3] the target is T1, His-MBP-FBXL17^310-701/Skp1 complex. As to the kind of experiment: pull-down.

Where a chain is given by its changes, count along the chain named. Names and notes keep the numbering of the source.

T1 sequence (Q9UF56 310-701, chain 1 of 2): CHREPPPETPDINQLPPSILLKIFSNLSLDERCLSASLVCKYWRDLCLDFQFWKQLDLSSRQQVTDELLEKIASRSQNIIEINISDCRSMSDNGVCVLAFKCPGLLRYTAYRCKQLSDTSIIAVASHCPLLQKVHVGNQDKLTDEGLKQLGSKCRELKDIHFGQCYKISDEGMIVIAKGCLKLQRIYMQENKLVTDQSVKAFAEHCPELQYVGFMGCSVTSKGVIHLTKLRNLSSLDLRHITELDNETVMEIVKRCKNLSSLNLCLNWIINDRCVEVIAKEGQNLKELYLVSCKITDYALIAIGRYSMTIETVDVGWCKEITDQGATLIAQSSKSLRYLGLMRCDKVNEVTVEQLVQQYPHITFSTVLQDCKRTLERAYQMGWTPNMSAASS
T1 sequence (P63208 whole entry, chain 2 of 2): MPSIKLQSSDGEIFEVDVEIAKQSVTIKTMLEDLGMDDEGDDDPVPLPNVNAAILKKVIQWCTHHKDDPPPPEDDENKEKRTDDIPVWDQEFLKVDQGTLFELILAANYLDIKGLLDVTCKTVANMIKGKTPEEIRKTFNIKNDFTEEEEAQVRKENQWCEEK
Chain of FBXL17^310-701 (tags removed, in the structures) (Q9UF56 310-701): as the sequence (Q9UF56 310-701, chain 1 of 2) above

B1: KEAP1^48-180 S172A (recombinant BTB domain, called wild type) (domain or fragment)
chain: GNRTFSYTLEDHTKQAFGIMNELRLSQQLCDVTLQVKYQDAPAAQFMAHKVVLASSSPVFKAMFTNGLREQGMEVVSIEGIHPKVMERLIEFAYTASISMGEKCVLHVMNGAVMYQIDSVVRACADFLVQQLD
As to B1, in “SEC”, the “stoichiometry N” value came to 2.

B2: KEAP1^48-180 S172A/F64A/R116C labeled with Alexa Fluor 555 or Alexa Fluor 647 (domain or fragment)
chain: B1 chain with F17A, R69C
For B2, the binding result (in data set [1]; in “FRET or BRET”) was “binds” in each case.

B3: KEAP1^48-180 S172A/V98A (recombinant BTB domain) (domain or fragment)
chain: B1 chain with V51A
On to B3, for which the “stoichiometry N” value in “SEC” amounted to 2.

B4: KEAP1^48-180 S172A/F64A (recombinant BTB domain) (domain or fragment)
chain: B1 chain with F17A
In the case of B4, in “SEC”, the “stoichiometry N” value worked out at 2. Moreover, the binding result in data set [2] and in data set [3] was “binds” in each case.
